{"source": "patent US7972771B2", "about": "“Human brain carboxypeptidase B” (priority 1999, dated 2011)", "key": {"[1]": {"target": "T1, 40 kDa protease (Homo sapiens, UniProt Q96IY4, A169T/A260V/E345D/I347T/R257S)", "T1 construct": "The 40 kDa proteolytic activity from fraction 19 was trapped in the column and recovered by elution; from tissue; host or cells: human hippocampus (autopsy brain)", "T1 sequence (Q96IY4 23-360 isoform Q96IY4-2 A169T/R220S/A223V/E308D/I310T limits assumed)": "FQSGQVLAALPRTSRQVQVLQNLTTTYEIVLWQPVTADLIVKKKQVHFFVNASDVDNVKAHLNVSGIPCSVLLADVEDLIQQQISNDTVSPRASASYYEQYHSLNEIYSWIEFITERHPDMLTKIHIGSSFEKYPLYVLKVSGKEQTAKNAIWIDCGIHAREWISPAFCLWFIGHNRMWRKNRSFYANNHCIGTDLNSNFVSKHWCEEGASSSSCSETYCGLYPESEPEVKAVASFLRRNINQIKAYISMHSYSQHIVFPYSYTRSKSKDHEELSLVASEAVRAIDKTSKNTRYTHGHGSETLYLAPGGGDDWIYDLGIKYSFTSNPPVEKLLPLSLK", "assay": "Inhibition of natural brain APP degradation by the 40 kDa protease (Western blot, anti Aβ 1/14 or anti APP-CT antibody)", "type": "biochemical", "details": "37° C., 3 h", "procedure": "After separation of proteins by SDS-PAGE, proteins on the gel was blotted onto a Hybond C nitrocellulose membrane (Amersham Pharmacia, UK), after which non-specific binding was blocked by immersing the membrane in 5% bovine serum albumin for 1 h in Tris-buffered saline: 100 mM Tris-HCl (pH 7.5), 140 mM NaCl and 0.1% Tween 20. The membrane next was washed for 45 min with three changes of the above buffer then incubated at 4° C. for 16 h with the first antibody (anti Aβ 1/14 antibody) appropriately diluted with Tris-buffered saline. After again washing it as above, the membrane was incubated at room temperature for 1 h with a horseradish peroxidase-labeled anti rabbit second antibody diluted 1:2000. After the washing, signals were detected on X-ray film using an ECL chemiluminescence detection system (Amersham Pharmacia, UK)."}, "[2]": {"assay": "Stability of proteolytic activity of native-PAGE fraction", "type": "physicochemical", "from_the_text": "Of the 61 fractions analyzed, fraction 19 with a molecular mass of about 40 kDa and fraction 11 with a molecular mass of about 30 kDa had similar proteolytic activities. […] Fraction 19 with the 40 kDa molecular mass with proteolytic activity therefore was further purified."}, "[3]": {"tested_on": "natural brain APP", "assay": "Proteolysis of natural brain APP by the isolated 40 kDa protease (Western blot)", "type": "biochemical, human", "details": "0.1 pmol APP, 0.005 to 0.1 pmol protease, 37° C., 3 h, 1 mM Zn2+; generates 5.5 kDa fragment", "experimental": "In the proteolytic analysis of the fractions for natural brain APP, approximately 0.1 pmol of natural brain APP prepared from human hippocampus was incubated at 37° C. for 3 h with each fraction (approximately 0.05 pmol) in the presence of 1 mM Zn^2+. To obtain proteolytic activities of interest, each reaction mixture was loaded in parallel wells for SDS-PAGE then subjected to Western blot analysis using anti Aβ 1/14 antibody (Calbiochem) as follows.\nAfter separation of proteins by SDS-PAGE, proteins on the gel was blotted onto a Hybond C nitrocellulose membrane (Amersham Pharmacia, UK), after which non-specific binding was blocked by immersing the membrane in 5% bovine serum albumin for 1 h in Tris-buffered saline: 100 mM Tris-HCl (pH 7.5), 140 mM NaCl and 0.1% Tween 20. The membrane next was washed for 45 min with three changes of the above buffer then incubated at 4° C. for 16 h with the first antibody (anti Aβ 1/14 antibody) appropriately diluted with Tris-buffered saline. […] After the washing, signals were detected on X-ray film using an ECL chemiluminescence detection system (Amersham Pharmacia, UK).\nThe brain APP substrate (approximately 0.1 pmol) was treated with the 40 kDa protease (0.005 to 0.1 pmol) at 37° C. for 3 h in the presence of 1 mM Zn^2+ to analyze the isolated 40 kDa protease. The reaction product analyzed by Western blotting with anti Aβ 1/14 antibody (FIG. 2). […]"}, "[4]": {"tested_on": "synthetic Aβ 1-40", "assay": "Carboxypeptidase digestion of synthetic Aβ 1-40 (Western blot)", "type": "biochemical", "details": "0.01 pM to 0.2 pM enzyme, 0.1 pM substrate, 37° C., 16 hours", "from_the_text": "(§1) In Western blot analysis, low-molecular weight peptides (in which several amino acids have shifted) can be confirmed by anti-Aβ-N-terminus antibody regarding the Aβ 1-40 substrate, however this cannot be confirmed by the anti-Aβ 40 fragment antibody. On the other hand, low-molecular weight peptides (in which several amino acids have shifted) can be confirmed by anti-Aβ-N-terminus antibody regarding the Aβ 1-42 substrate, however this cannot be confirmed by the anti-Aβ 42 fragment antibody."}, "[5]": {"tested_on": "synthetic Aβ 1-42", "assay": "Carboxypeptidase digestion of synthetic Aβ 1-42 (Western blot)", "type": "biochemical", "details": "0.01 pM to 0.2 pM enzyme, 0.1 pM substrate, 37° C., 16 hours", "from_the_text": "as §1"}}}
{"molecule": "chondroitinase ABC", "values": [{"measurement": "inhibition of brain APP degradation reaction", "setting": "[1]; APP pretreated with 0.5 pmol chondroitinase ABC, FIG. 2 lane 3", "value": "almost completely inhibited"}]}
{"molecule": "potato carboxypeptidase inhibitor: potato carboxypeptidase inhibitor (BioPur, Switzerland) (QQHADPICNKPCKTHDDCSGAWFCQACWNSARTCGPYVG)", "values": [{"measurement": "inhibition of brain APP degradation reaction", "setting": "[1]; 1 mM potato carboxypeptidase inhibitor, 1 mM Zn2+, FIG. 2 lane 4", "value": "completely inhibited"}]}
{"molecule": "fraction 11: native-PAGE fraction of about 30 kDa with proteolytic activity; mature form of HBCPB (protein) ASASYYEQYHSLNEIYSWIEFITERHPDMLTKIHIGSSFEKYPLYVLKVSGKEQTAKNAIWIDCGIHAREWISPAFCLWFIGHNRMWRKNRSFYANNHCIGTDLNRNFASKHWCEEGASSSSCSETYCGLYPESEPEVKAVASFLRRNINQIKAYISMHSYSQHIVFPYSYTRSKSKDHEELSLVASEAVRAIEKTSKNTRYTHGHGSETLYLAPGGGDDWIYDLGIKYSFTSNPPVEKLLPLSLK", "values": [{"measurement": "activity after long-term storage", "setting": "[2]; 2 w at −20° C.", "value": "lost its activity"}, {"measurement": "time to loss of proteolytic activity", "setting": "[2]; room temperature", "value": "≤ 30", "unit": "min"}]}
{"molecule": "40 kDa protein: 40 kDa protease purified from human hippocampal homogenate; brain carboxypeptidase B (SEQ ID NO: 2) (protein, listed as Homo sapiens) MKLCSLAVLVPIVLFCEQHVFAFQSGQVLAALPRTSRQVQVLQNLTTTYEIVLWQPVTADLIVKKKQVHFFVNASDVDNVKAHLNVSGIPCSVLLADVEDLIQQQISNDTVSPRASASYYEQYHSLNEIYSWIEFITERHPDMLTKIHIGSSFEKYPLYVLKVSGKEQTAKNAIWIDCGIHAREWISPAFCLWFIGHNRMWRKNRSFYANNHCIGTDLNSNFVSKHWCEEGASSSSCSETYCGLYPESEPEVKAVASFLRRNINQIKAYISMHSYSQHIVFPYSYTRSKSKDHEELSLVASEAVRAIDKTSKNTRYTHGHGSETLYLAPGGGDDWIYDLGIKYSFTSNPPVEKLLPLSLK", "values": [{"measurement": "degradation of natural brain APP", "setting": "[3]", "value": "degraded natural brain APP"}, {"measurement": "formation of low-molecular weight peptides from Aβ 1-40", "setting": "[4]", "value": "low-molecular weight peptides formed in a dose-dependent manner"}, {"measurement": "formation of low-molecular weight peptides from Aβ 1-42", "setting": "[5]", "value": "low-molecular weight peptides formed in a dose-dependent manner"}]}
